Paper PMC8176890
Like-named read-outs stand apart in the source and are kept apart here.

What was measured:
[1] = target: wild-type heterotrimeric human Gαi1β1γ1 (human) (UniProt P63096); assay: MST
[2] = target: wild-type heterotrimeric human Gαi1β1γ1 (human) (UniProt P63096); assay: MST; remark: listed apart in the source
[3] = target: wild-type heterotrimeric human Gαi1β1γ1 (human) (UniProt P63096); assay: BLI
[4] = target: wild-type heterotrimeric human Gαi1β1γ1 (human) (UniProt P63096); assay: MST; remark: listed apart in the source
[5] = target: wild-type heterotrimeric human Gαi1β1γ1 (human) (UniProt P63096); assay: MST; remark: listed apart in the source

Chain of wild-type heterotrimeric human Gαi1β1γ1 (human) (P63096 whole entry, chain 1 of 3): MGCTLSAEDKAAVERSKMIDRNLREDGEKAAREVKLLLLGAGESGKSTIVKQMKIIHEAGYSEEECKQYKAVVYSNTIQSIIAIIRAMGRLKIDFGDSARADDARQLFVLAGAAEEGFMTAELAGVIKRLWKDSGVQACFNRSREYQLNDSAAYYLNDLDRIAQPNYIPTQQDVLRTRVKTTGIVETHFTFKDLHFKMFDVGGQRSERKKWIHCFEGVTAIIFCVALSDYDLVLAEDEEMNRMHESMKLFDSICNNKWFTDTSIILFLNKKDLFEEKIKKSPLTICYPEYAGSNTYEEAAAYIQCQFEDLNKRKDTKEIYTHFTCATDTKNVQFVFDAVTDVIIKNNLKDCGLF
Chain of wild-type heterotrimeric human Gαi1β1γ1 (human) (P62873 2-340, chain 2 of 3, further chain): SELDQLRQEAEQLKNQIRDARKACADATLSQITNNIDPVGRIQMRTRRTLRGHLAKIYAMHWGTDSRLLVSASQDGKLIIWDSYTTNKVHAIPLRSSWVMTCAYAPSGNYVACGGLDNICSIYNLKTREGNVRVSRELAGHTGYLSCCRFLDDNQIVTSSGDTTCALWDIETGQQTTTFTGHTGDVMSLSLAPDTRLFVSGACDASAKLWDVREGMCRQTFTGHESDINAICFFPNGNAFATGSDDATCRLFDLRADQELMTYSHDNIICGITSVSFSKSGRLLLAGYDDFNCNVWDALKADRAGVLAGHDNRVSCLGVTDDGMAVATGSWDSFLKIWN
Chain of wild-type heterotrimeric human Gαi1β1γ1 (human) (P63211 2-74, chain 3 of 3, further chain): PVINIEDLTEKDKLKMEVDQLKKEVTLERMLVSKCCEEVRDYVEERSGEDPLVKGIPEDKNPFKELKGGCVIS

Row | Kd [1] | Kd [2] | KD of the high-affinity binding mode (2:1 model) [3] | KD of the lower-affinity binding mode (2:1 model) [3] | Kd [4] | Kd [5] | Substance
1 | 347 nM | – | – | – | – | – | NTS-NTSR1 complex with the 5-alanine mutant TM86V-L167R E166A/K176A/K178A/S182A/R185A (from UniProt P20789 50-390)
2 | 76 nM | 53 nM | 5.8 nM | 38 nM | 236 nM | 1400 nM | NTS-NTSR1 complex: neurotensin 8-13 bound to rat NTSR1 TM86V-L167R ΔIC3B (from UniProt P20789 50-390)
